One series addresses T1, Lin28-CSD (Homo sapiens, UniProt Q9H9Z2 32-136).
T1 sequence: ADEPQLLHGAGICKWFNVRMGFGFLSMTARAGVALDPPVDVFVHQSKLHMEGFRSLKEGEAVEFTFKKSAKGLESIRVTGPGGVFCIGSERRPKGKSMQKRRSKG
The experiment in a line: NMR (1H-15N HSQC); 298 K; EMSA: 20 mM Tris pH 7.6, 40 mM NaCl, 0.5 mM DTT, room temperature, 30 min; NMR: 50 mM potassium phosphate pH 7.0, 50 uM 15N-protein, 298 K (C10) or 303 K (C20). The conditions noted are these: protein: recombinant; tags: His6. In general terms: A gel shift assay detects complexes by their altered migration in electrophoresis.

The next series addresses YB-1-CSD (Homo sapiens, UniProt P67809 1-180). The series is described as follows: NMR (1H-15N HSQC); 298 K; spectra stated as already published (ref 7); EMSA: 20 mM Tris pH 7.6, 40 mM NaCl, 0.5 mM DTT, room temperature, 30 min; NMR: 50 mM potassium phosphate pH 7.0, 50 uM 15N-protein, 298 K (C10) or 303 K (C20). The following applies: protein: recombinant.

This is an account of results in paper PMC7979924, “Lin28, a major translation reprogramming factor, gains access to YB-1-packaged mRNA through its cold-shock domain”.

Sequence of YB-1-CSD (P67809 1-180): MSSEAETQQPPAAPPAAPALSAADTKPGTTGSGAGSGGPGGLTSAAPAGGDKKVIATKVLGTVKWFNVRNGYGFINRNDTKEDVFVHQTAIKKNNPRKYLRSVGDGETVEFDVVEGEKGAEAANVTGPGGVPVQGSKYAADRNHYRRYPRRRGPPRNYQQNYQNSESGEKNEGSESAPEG

On to CCCCCCCCCC (ssDNA) [poly(C) DNA C10], for which the binding result in the series with Lin28-CSD and in the series with YB-1-CSD was “binds” each time.
